The target of data set [1] is T1, LASV L protein (WT) (Lassa virus Bantou 289, UniProt A0A3S8NV63 1-2217). As to the kind of experiment: cryo-EM; PRE-[…]ON, 3.34 A. The note with it: protein: recombinant; tags: internal StrepII after residue 407, or C-terminal StrepII-His.
The target in data set [2] is T1, LASV L protein (WT). As to the kind of experiment: EMSA. The conditions noted are these: protein: recombinant; tags: internal StrepII after residue 407, or C-terminal StrepII-His; label: 5' Cyanine3; single strand.

Experimental findings from publication PMC8639829 are described below.

B1: full promoter: 5' vRNA 0-19 / 3' vRNA 1-19 (structured_RNA)
RNA 1: GCGCACCGGGGAUCCUAGGC
RNA 2: GCCUAGGAUCCACUGUGCG
As to B1, in data set [1], the binding result was “binds”.
For the molecule CCACUGUGCG (ssRNA) [3' vRNA 1-10 nt], the binding result in data set [2] was “binds”.
